This passage reports Kd results from paper PMC10315472.

Common to all, as to experiment: SPR
For experiment [1], the target named is wild-type SARS-CoV-2 Spike receptor-binding domain (SARS-CoV-2) (UniProt P0DTC2).
Experiment [2] concerns the target emorisin (Emergomyces orientalis).
Experiment [3] concerns the target AMSIN (actinomyces).

pKd: −log10 of the molar value.

The substance (ΔGFG)AMSIN (peptide) gave a pKd in experiment [1] of 6.92.
On to “wild-type SARS-CoV-2 Spike receptor-binding domain (from UniProt P0DTC2 319-527) (domain or fragment)”, for which the pKd is 8.12 in experiment [2] and 6.71 in experiment [3].
